B1: SiRFP-60X: sulfite reductase flavoprotein amino acids 52-599 (C162T/C552S/E121C/N556C) (domain or fragment, Escherichia coli K-12, UniProt P38038 52-599, looked up)
chain: AATPAPAAEMPGITIISASQTGNARRVAEALRDDLLAAKLNVKLVNAGDYKFKQIASEKLLIVVTSTQGCGEPPEEAVALHKFLFSKKAPKLENTAFAVFSLGDSSYEFFTQSGKDFDSKLAELGGERLLDRVDADVEYQAAASEWRARVVDALKSRAPVAAPSQSVATGAVNEIHTSPYSKDAPLVASLSVNQKITGRNSEKDVRHIEIDLGDSGMRYQPGDALGVWYQNDPALVKELVELLWLKGDEPVTVEGKTLPLNEALQWHFELTVNTANIVENYATLTRSETLLPLVGDKAKLQHYAATTPIVDMVRFSPAQLDAEALINLLRPLTPRLYSIASSQAEVENEVHVTVGVVRYDVEGRARAGGASSFLADRVEEEGEVRVFIEHNDNFRLPANPETPVIMIGPGTGIAPFRAFMQQRAADEAPGKNWLFFGNPHFTEDFLYQVEWQRYVKDGVLTRIDLAWSRDQKEKVYVQDKLREQGAELWRWINDGAHIYVSGDACRMAKDVEQALLEVIAEFGGMDTEAADEFLSELRVERRYQRDVY
B2: SiRFP-43: sulfite reductase flavoprotein amino acids 237-599 (domain or fragment, Escherichia coli K-12, UniProt P38038 237-599, looked up)
chain: LVASLSVNQKITGRNSEKDVRHIEIDLGDSGMRYQPGDALGVWYQNDPALVKELVELLWLKGDEPVTVEGKTLPLNEALQWHFELTVNTANIVENYATLTRSETLLPLVGDKAKLQHYAATTPIVDMVRFSPAQLDAEALINLLRPLTPRLYSIASSQAEVENEVHVTVGVVRYDVEGRARAGGASSFLADRVEEEGEVRVFIEHNDNFRLPANPETPVIMIGPGTGIAPFRAFMQQRAADEAPGKNWLFFGNPHFTEDFLYQVEWQRYVKDGVLTRIDLAWSRDQKEKVYVQDKLREQGAELWRWINDGAHIYVCGDANRMAKDVEQALLEVIAEFGGMDTEAADEFLSELRVERRYQRDVY
B3: SiRFP-60Δ: sulfite reductase flavoprotein amino acids 52-599/Δ212-217 (Δ-AAPSQS) (domain or fragment, Escherichia coli K-12, UniProt P38038 52-599, looked up)
chain: AATPAPAAEMPGITIISASQTGNARRVAEALRDDLLAAKLNVKLVNAGDYKFKQIASEKLLIVVTSTQGEGEPPEEAVALHKFLFSKKAPKLENTAFAVFSLGDSSYEFFCQSGKDFDSKLAELGGERLLDRVDADVEYQAAASEWRARVVDALKSRAPVVATGAVNEIHTSPYSKDAPLVASLSVNQKITGRNSEKDVRHIEIDLGDSGMRYQPGDALGVWYQNDPALVKELVELLWLKGDEPVTVEGKTLPLNEALQWHFELTVNTANIVENYATLTRSETLLPLVGDKAKLQHYAATTPIVDMVRFSPAQLDAEALINLLRPLTPRLYSIASSQAEVENEVHVTVGVVRYDVEGRARAGGASSFLADRVEEEGEVRVFIEHNDNFRLPANPETPVIMIGPGTGIAPFRAFMQQRAADEAPGKNWLFFGNPHFTEDFLYQVEWQRYVKDGVLTRIDLAWSRDQKEKVYVQDKLREQGAELWRWINDGAHIYVCGDANRMAKDVEQALLEVIAEFGGMDTEAADEFLSELRVERRYQRDVY

These binders were tested against T1, Escherichia coli sulfite reductase hemoprotein (Escherichia coli K-12, UniProt P17846 1-570) (assay: cryo-EM structure).
T1 sequence: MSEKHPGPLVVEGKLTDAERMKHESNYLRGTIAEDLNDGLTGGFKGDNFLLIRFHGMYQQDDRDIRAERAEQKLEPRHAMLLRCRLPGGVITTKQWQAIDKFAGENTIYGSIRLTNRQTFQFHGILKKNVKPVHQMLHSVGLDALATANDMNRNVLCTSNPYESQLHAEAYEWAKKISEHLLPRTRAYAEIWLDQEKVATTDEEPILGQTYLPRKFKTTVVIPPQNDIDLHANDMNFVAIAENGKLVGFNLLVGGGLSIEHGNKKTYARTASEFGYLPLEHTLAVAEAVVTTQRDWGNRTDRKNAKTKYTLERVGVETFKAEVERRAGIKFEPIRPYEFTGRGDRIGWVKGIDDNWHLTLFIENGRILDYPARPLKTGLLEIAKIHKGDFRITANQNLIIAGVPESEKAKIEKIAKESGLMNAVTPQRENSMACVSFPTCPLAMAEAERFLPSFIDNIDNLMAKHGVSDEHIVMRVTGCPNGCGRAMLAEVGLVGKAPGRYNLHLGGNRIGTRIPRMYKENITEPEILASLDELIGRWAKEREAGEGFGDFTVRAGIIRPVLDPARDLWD

Binding result, binds:
B1
B2
B3
